Laboratory results from publication PMC4749974, “New insights into the mechanism of substrates trafficking in Glyoxylate/Hydroxypyruvate reductases” (Scientific Reports, 2016).
Blank lines part the entries; values can stand above or below the molecule they belong to.

Columns and labels:
[1] = biological target: T1, PyaGRHPR (Pyrococcus yayanosii, UniProt F8AEA4); test: crystal structure […] Å; assay type: binding; conditions: copurified
T1 construct: gene gyaR; synthetic codon-optimised gene in pET41c, E. coli BL21(DE3)-RIL; no tag mentioned; heat step 85 °C, Resource Q, Superose 12; 66 kDa homodimer
T1 sequence (F8AEA4 1-333): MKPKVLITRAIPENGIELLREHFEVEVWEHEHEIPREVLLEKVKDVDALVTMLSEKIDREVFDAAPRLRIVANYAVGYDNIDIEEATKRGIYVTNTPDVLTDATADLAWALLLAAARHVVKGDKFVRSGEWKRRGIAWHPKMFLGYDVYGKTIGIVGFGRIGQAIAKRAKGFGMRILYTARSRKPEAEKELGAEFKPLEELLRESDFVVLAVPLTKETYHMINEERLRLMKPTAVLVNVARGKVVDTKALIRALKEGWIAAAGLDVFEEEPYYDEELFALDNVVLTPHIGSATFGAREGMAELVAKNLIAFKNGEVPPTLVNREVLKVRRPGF

[2] = biological target: T2, PhoGRHPR (Pyrococcus horikoshii, UniProt O58320); test: NAD(P)H absorbance at […] nm, substrate inhibition fit; assay type: biochemical; conditions: NADH 0.5 mM, Tris-HCl 100 mM pH 8.0, 50 °C
T2 construct: gene gyaR; synthetic codon-optimised gene in pET41c, E. coli BL21(DE3)-RIL; no tag mentioned; heat step 85 °C, Resource Q, Superose 12; 66 kDa homodimer
T2 sequence (O58320 1-334): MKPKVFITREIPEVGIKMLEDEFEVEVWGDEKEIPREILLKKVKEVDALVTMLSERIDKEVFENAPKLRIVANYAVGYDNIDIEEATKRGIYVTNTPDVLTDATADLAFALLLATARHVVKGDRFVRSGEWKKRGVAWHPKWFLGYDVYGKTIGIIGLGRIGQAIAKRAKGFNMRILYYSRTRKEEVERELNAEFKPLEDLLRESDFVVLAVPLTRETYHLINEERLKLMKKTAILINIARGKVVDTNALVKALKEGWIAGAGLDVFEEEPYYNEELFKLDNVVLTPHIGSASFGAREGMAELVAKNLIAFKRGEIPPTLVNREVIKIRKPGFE

[3] = biological target: T1, PyaGRHPR; test: as above; assay type: biochemical; conditions: NADH 0.5 mM, Tris-HCl 100 mM pH 8.0, 50 °C
[4] = biological target: T3, PfuGRHPR (Pyrococcus furiosus, UniProt Q8U3Y2); test: as above; assay type: biochemical; conditions: NADH 0.5 mM, Tris-HCl 100 mM pH 8.0, 50 °C
T3 construct: gene gyaR; synthetic codon-optimised gene in pET41c, E. coli BL21(DE3)-RIL; no tag mentioned; heat step 85 °C, Resource Q, Superose 12; 66 kDa homodimer
T3 sequence (Q8U3Y2 1-336): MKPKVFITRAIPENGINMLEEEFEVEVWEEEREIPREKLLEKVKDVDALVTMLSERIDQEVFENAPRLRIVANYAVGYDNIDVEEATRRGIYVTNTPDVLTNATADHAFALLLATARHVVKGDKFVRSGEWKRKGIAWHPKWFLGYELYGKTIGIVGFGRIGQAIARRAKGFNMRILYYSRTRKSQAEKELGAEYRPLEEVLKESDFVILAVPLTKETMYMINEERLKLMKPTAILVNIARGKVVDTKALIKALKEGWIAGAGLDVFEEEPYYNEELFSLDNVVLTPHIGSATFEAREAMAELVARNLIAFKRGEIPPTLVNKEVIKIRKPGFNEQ

[5] = biological target: T3, PfuGRHPR; test: crystal structure […] Å; assay type: binding
[6] = biological target: T1, PyaGRHPR; test: NAD(P)H absorbance at […] nm; assay type: biochemical; conditions: co-substrate hydroxypyruvate or glyoxylate, Tris-HCl 100 mM pH 8.0, 50 °C
[7] = biological target: T3, PfuGRHPR; test: NAD(P)H absorbance at […] nm; assay type: biochemical; conditions: co-substrate hydroxypyruvate or glyoxylate, Tris-HCl 100 mM pH 8.0, 50 °C
[8] = substrate: O=C(O)C(=O)CO; test: purified protein; assay type: biochemical, Pyrococcus furiosus; conditions: NADH 0.5 mM, Tris-HCl 100 mM pH 8.0, 50 °C
[9] = substrate: O=CC(=O)O; test: purified protein; assay type: biochemical, Pyrococcus furiosus; conditions: NADH 0.5 mM, Tris-HCl 100 mM pH 8.0, 50 °C
[10] = substrate: O=C(O)C(=O)CO; test: purified protein; assay type: biochemical, Pyrococcus yayanosii; conditions: NADH 0.5 mM, Tris-HCl 100 mM pH 8.0, 50 °C
[11] = substrate: O=CC(=O)O; test: purified protein; assay type: biochemical, Pyrococcus yayanosii; conditions: NADH 0.5 mM, Tris-HCl 100 mM pH 8.0, 50 °C
[12] = substrate: O=C(O)C(=O)CO; test: purified protein; assay type: biochemical, Pyrococcus horikoshii; conditions: NADH 0.5 mM, Tris-HCl 100 mM pH 8.0, 50 °C
[13] = substrate: O=CC(=O)O; test: purified protein; assay type: biochemical, Pyrococcus horikoshii; conditions: NADH 0.5 mM, Tris-HCl 100 mM pH 8.0, 50 °C

Molecule: O=C(O)[C@H](O)CO [D-glycerate]
crystal structure 2.0 Å ([1]; ternary complex with NADP(H), active site, density did not distinguish D-glycerate from hydroxypyruvate): The PyaGRHPR structure contains D-glycerate, product of HPR activity

PhoGRHPR / NADH [2]: 3820 ± 680 µM
PyaGRHPR / NADH [3]: 760 ± 200 µM
PfuGRHPR / NADH [4]: 350 ± 140 µM
Molecule: O=C(O)C(=O)CO [hydroxypyruvate]

Molecule: O=CC(=O)O [glyoxylate]
crystal structure 1.40 Å ([5]; ternary complex with NADP(H), ligand carried over from E. coli, active site, further molecule in tunnel): the determination of the PfuGRHPR structure reveals a ternary complex in the presence of glyoxylate

Molecule: NC(=O)C1=CN([C@@H]2O[C@H](COP(=O)(O)OP(=O)(O)OC[C@H]3O[C@@H](n4cnc5c(N)ncnc54)[C@H](OP(=O)(O)O)[C@@H]3O)[C@@H](O)[C@H]2O)C=CC1 [NADPH]
KM [6]: Archaeal GRHPR presents higher affinity for NADPH compared to NADH
KM [7]: Archaeal GRHPR presents higher affinity for NADPH compared to NADH
crystal structure 1.40 Å ([5]; ternary complex with glyoxylate, copurified, modelled as NADP(H), oxidation state not resolved): Both structures include a cofactor molecule, unambiguously modeled as NADP(H)
crystal structure 2.0 Å ([1]; ternary complex with D-glycerate, modelled as NADP(H), oxidation state not resolved): Both structures include a cofactor molecule, unambiguously modeled as NADP(H)

Molecule: NC(=O)C1=CN([C@@H]2O[C@H](COP(=O)(O)OP(=O)(O)OC[C@H]3O[C@@H](n4cnc5c(N)ncnc54)[C@H](O)[C@@H]3O)[C@@H](O)[C@H]2O)C=CC1 [NADH]
KM [6]: Archaeal GRHPR presents higher affinity for NADPH compared to NADH
KM [7]: Archaeal GRHPR presents higher affinity for NADPH compared to NADH

B1: PfuGRHPR (Pyrococcus furiosus DSM 3638) (protein)
chain: MKPKVFITRAIPENGINMLEEEFEVEVWEEEREIPREKLLEKVKDVDALVTMLSERIDQEVFENAPRLRIVANYAVGYDNIDVEEATRRGIYVTNTPDVLTNATADHAFALLLATARHVVKGDKFVRSGEWKRKGIAWHPKWFLGYELYGKTIGIVGFGRIGQAIARRAKGFNMRILYYSRTRKSQAEKELGAEYRPLEEVLKESDFVILAVPLTKETMYMINEERLKLMKPTAILVNIARGKVVDTKALIKALKEGWIAGAGLDVFEEEPYYNEELFSLDNVVLTPHIGSATFEAREAMAELVARNLIAFKRGEIPPTLVNKEVIKIRKPGFNEQ
notes: synthetic codon-optimised gene in pET41c, E. coli BL21(DE3)-RIL; no tag mentioned; heat step 85 °C, Resource Q, Superose 12; 66 kDa homodimer
Km [8]: 140 ± 55 µM
kcat [8]: 10 ± 5 s⁻¹
kcat/Km [8]: 75000 ± 50000 M⁻¹ s⁻¹
Km [9]: 1800 ± 25 µM
kcat [9]: 13 ± 0.5 s⁻¹
kcat/Km [9]: 7000 ± 500 M⁻¹ s⁻¹

B2: PyaGRHPR (Pyrococcus yayanosii CH1) (protein)
chain: MKPKVLITRAIPENGIELLREHFEVEVWEHEHEIPREVLLEKVKDVDALVTMLSEKIDREVFDAAPRLRIVANYAVGYDNIDIEEATKRGIYVTNTPDVLTDATADLAWALLLAAARHVVKGDKFVRSGEWKRRGIAWHPKMFLGYDVYGKTIGIVGFGRIGQAIAKRAKGFGMRILYTARSRKPEAEKELGAEFKPLEELLRESDFVVLAVPLTKETYHMINEERLRLMKPTAVLVNVARGKVVDTKALIRALKEGWIAAAGLDVFEEEPYYDEELFALDNVVLTPHIGSATFGAREGMAELVAKNLIAFKNGEVPPTLVNREVLKVRRPGF
notes: as for B1
Km [10]: 410 ± 110 µM
kcat [10]: 25 ± 5 s⁻¹
kcat/Km [10]: 60000 ± 25000 M⁻¹ s⁻¹
Km [11]: 1500 ± 140 µM
kcat [11]: 4.8 ± 0.2 s⁻¹
kcat/Km [11]: 3000 ± 500 M⁻¹ s⁻¹

B3: PhoGRHPR (Pyrococcus horikoshii OT3) (protein)
chain: MKPKVFITREIPEVGIKMLEDEFEVEVWGDEKEIPREILLKKVKEVDALVTMLSERIDKEVFENAPKLRIVANYAVGYDNIDIEEATKRGIYVTNTPDVLTDATADLAFALLLATARHVVKGDRFVRSGEWKKRGVAWHPKWFLGYDVYGKTIGIIGLGRIGQAIAKRAKGFNMRILYYSRTRKEEVERELNAEFKPLEDLLRESDFVVLAVPLTRETYHLINEERLKLMKKTAILINIARGKVVDTNALVKALKEGWIAGAGLDVFEEEPYYNEELFKLDNVVLTPHIGSASFGAREGMAELVAKNLIAFKRGEIPPTLVNREVIKIRKPGFE
notes: as for B1
Km [12]: 70 ± 11 µM
kcat [12]: 4.5 ± 0.5 s⁻¹
kcat/Km [12]: 65000 ± 20000 M⁻¹ s⁻¹
Km [13]: 160 ± 25 µM
kcat [13]: 4 ± 0.5 s⁻¹
kcat/Km [13]: 25000 ± 5000 M⁻¹ s⁻¹
